# Data reported in paper PMC6281772.
# Target: tropomyosin of native porcine cardiac thin filaments (porcine (endogenous in pig heart)) (UniProt P42639)
# Test: cryo-EM structure
substance,measurement,value
C0C1 fragment of human cardiac myosin binding protein-C (C0-PA-C1) (domain or fragment),frequency of segments with C1 in the C1-S position (C1 tethers actin and Tm),36%
